± gives the standard deviation of the averaged measurements.

The data set relates to Saccharomyces cerevisiae. The experiment in a line: protein stability index of tFT-peptide fusion (C-terminal peptide) (PSI (0-1 scale)); higher = more stable (slower turnover). The settings on record: temperature: 30 C. The method, then:
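MPS profiling in S. cerevisiae of the yeast C-terminome library: the last 12 aa of each annotated ORF are fused to the C-terminus of a sfGFP-mCherry timer, after a GGGS linker. Cells are FACS-sorted into 8 mCherry/sfGFP bins and deep-sequenced. PSI runs from 0 (unstable) to 1 (stable); wild type and das1Δ backgrounds, two technical replicates each.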

The mark [1] stands for this setting: genetic background: das1 deletion.

As to LKAVCPPDAGFA [YOR387C C-terminal 12 aa], the protein stability index amounted to 0.7086 ± 0.0046 under setting [1] and 0.7462 ± 0.0071 (genetic background: wild type).

In the case of LKHFIKVFSSKL [ARR1 C-terminal 12 aa], the protein stability index by setting is: under setting [1], 0.825 ± 0.013; (genetic background: wild type) 0.89 ± 0.024.

In turn, LKITDDLARKGF [TGL2 C-terminal 12 aa] returned a protein stability index under setting [1] of 0.7205 ± 0.0035 and a protein stability index (genetic background: wild type) of 0.666 ± 0.0096.

For the sequence LKKKLYTLEQKK [KEL2 C-terminal 12 aa], the protein stability index amounted to 0.694 ± 0.02 under setting [1] and 0.6241 ± 0.0031 (genetic background: wild type).

Regarding LKLNHSFATIFK [MCM21 C-terminal 12 aa], the protein stability index stood at 0.684 ± 0.018 under setting [1] and 0.677 ± 0.024 (genetic background: wild type).

Take LKQLDNLKSQLN [ARG4 C-terminal 12 aa]: the protein stability index under setting [1] stood at 0.7 ± 0.013 and the protein stability index (genetic background: wild type) turned out to be 0.6755 ± 0.0019.

With LLNSRATQDVVC [VMA3 C-terminal 12 aa], the protein stability index amounted to 0.6342 ± 0.0054 under setting [1] and 0.66 ± 0.0053 (genetic background: wild type).

For LLQSGRYGGNRS [RCI37 C-terminal 12 aa], the protein stability index amounted to 0.683 ± 0.011 under setting [1] and 0.663 ± 0.021 (genetic background: wild type).

The sequence LLSVDGWRTDQL [QRI7 C-terminal 12 aa] returned a protein stability index under setting [1] of 0.721 ± 0.014 and a protein stability index (genetic background: wild type) of 0.758 ± 0.031.

As for LMGAALAAVIFL [FIT1 C-terminal 12 aa], the protein stability index by setting is: under setting [1], 0.672 ± 0.018; (genetic background: wild type) 0.668 ± 0.026.

Consider LNFYNDNFGSQF [STP1 C-terminal 12 aa], for which the protein stability index runs as follows: under setting [1], 0.723 ± 0.0098; (genetic background: wild type) 0.71 ± 0.048.

LNKEALKHNMLK [HSH49 C-terminal 12 aa]: the protein stability index under setting [1] was 0.691 ± 0.048 and the protein stability index (genetic background: wild type) was determined as 0.695 ± 0.092.

As for LNKKSSVKILLY [CMS1 C-terminal 12 aa], the protein stability index under setting [1] came to 0.693 ± 0.01 and the protein stability index (genetic background: wild type) was 0.614 ± 0.0071.

Turning to LNWLIKGILTED [HFI1 C-terminal 12 aa], the protein stability index was determined as 0.753 ± 0.033 under setting [1] and 0.675 ± 0.039 (genetic background: wild type).

Regarding LPSERSRLSYTN [CBP3 C-terminal 12 aa], the protein stability index runs as follows: under setting [1], 0.703 ± 0.026; (genetic background: wild type) 0.696 ± 0.071.

Take “LPSPRFFSPITL [YER158W-A C-terminal 12 aa]”: the protein stability index under setting [1] was found to be 0.685 ± 0.024 and the protein stability index (genetic background: wild type) came out at 0.702 ± 0.008.

With LQFILPSMNLAN [GPB1 C-terminal 12 aa], the protein stability index runs as follows: under setting [1], 0.692 ± 0.0087; (genetic background: wild type) 0.656 ± 0.015.

Regarding LQKFYLQVSTIS [YFR054C C-terminal 12 aa], the protein stability index reads like this: under setting [1], 0.456 ± 0.0082; (genetic background: wild type) 0.456 ± 0.0082.

As for LQPMEAFKYDRS [BIO2 C-terminal 12 aa], the protein stability index is, setting by setting: under setting [1], 0.71 ± 0.0075; (genetic background: wild type) 0.731 ± 0.046.

On to LRASGDDSDPAY [PFA5 C-terminal 12 aa], for which the protein stability index runs as follows: under setting [1], 0.7076 ± 0.0054; (genetic background: wild type) 0.687 ± 0.014.

As to LRKKQVKKKVKS [SLX8 C-terminal 12 aa], the protein stability index by setting is: under setting [1], 0.6885 ± 0.0062; (genetic background: wild type) 0.716 ± 0.061.

LRRFIICQLHLI [YBR027C C-terminal 12 aa]: the protein stability index reads like this: under setting [1], 0.523 ± 0.02; (genetic background: wild type) 0.139 ± 0.0035.

Consider LRYYVSKLINFK [YNL324W C-terminal 12 aa], for which the protein stability index runs as follows: under setting [1], 0.70435 ± 0.00064; (genetic background: wild type) 0.6889 ± 0.00073.

For the sequence LSDSHYELNAES [PMT5 C-terminal 12 aa], the protein stability index reads like this: under setting [1], 0.712 ± 0.033; (genetic background: wild type) 0.706 ± 0.044.

With LSKDGIYTAIPK [PAU15 C-terminal 12 aa], the protein stability index under setting [1] is 0.685 ± 0.025 and the protein stability index (genetic background: wild type) was found to be 0.767 ± 0.12.

Consider LSRVGELYLSTD [SEC7 C-terminal 12 aa], for which the protein stability index stood at 0.683 ± 0.02 under setting [1] and 0.692 ± 0.038 (genetic background: wild type).

LSVEEDRDVQMT [APC5 C-terminal 12 aa]: the protein stability index was 0.684 ± 0.013 under setting [1] and 0.729 ± 0.054 (genetic background: wild type).

Take LVDIITGASSLG [ATP3 C-terminal 12 aa]: the protein stability index runs as follows: under setting [1], 0.6894 ± 0.004; (genetic background: wild type) 0.719 ± 0.041.

Consider LVVARDMLLASL [SPC25 C-terminal 12 aa], for which the protein stability index runs as follows: under setting [1], 0.6474 ± 0.0048; (genetic background: wild type) 0.624 ± 0.024.

As for LVYENVRVPRYL [IFM1 C-terminal 12 aa], the protein stability index worked out at 0.697 ± 0.015 under setting [1] and 0.6639 ± 0.0064 (genetic background: wild type).

Turning to LWNLSDNCKNTV [MMS1 C-terminal 12 aa], the protein stability index reads like this: under setting [1], 0.707 ± 0.02; (genetic background: wild type) 0.7014 ± 0.0061.

As to LYAQLRENGLVP [SNU114 C-terminal 12 aa], the protein stability index is, setting by setting: under setting [1], 0.695 ± 0.035; (genetic background: wild type) 0.683 ± 0.038.

For the sequence MAEKQIASEFNY [DBP7 C-terminal 12 aa], the protein stability index by setting is: under setting [1], 0.721 ± 0.012; (genetic background: wild type) 0.662 ± 0.0067.

Regarding MAQNYVIDRMGL [MTC1 C-terminal 12 aa], the protein stability index reads like this: under setting [1], 0.707 ± 0.027; (genetic background: wild type) 0.68 ± 0.037.

MEKSDRYIQETW [TAH18 C-terminal 12 aa]: the protein stability index by setting is: under setting [1], 0.7032 ± 0.0048; (genetic background: wild type) 0.691 ± 0.009.

For the sequence MERELIKEEYDN [PAA1 C-terminal 12 aa], the protein stability index worked out at 0.702 ± 0.025 under setting [1] and 0.67 ± 0.031 (genetic background: wild type).

Consider MERLQKGWSLAK [MDY2 C-terminal 12 aa], for which the protein stability index under setting [1] amounted to 0.71 ± 0.043 and the protein stability index (genetic background: wild type) is 0.684 ± 0.02.

Consider MFGKLGRYLYSH [NSG2 C-terminal 12 aa], for which the protein stability index was 0.75552 ± 0.00052 under setting [1] and 0.211 ± 0.04 (genetic background: wild type).

MFNQGKVEEMDF [SML1 C-terminal 12 aa]: the protein stability index is, setting by setting: under setting [1], 0.7189 ± 0.0047; (genetic background: wild type) 0.692 ± 0.017.

As to MGIRLRYNVEPK [RPA135 C-terminal 12 aa], the protein stability index runs as follows: under setting [1], 0.735 ± 0.041; (genetic background: wild type) 0.663 ± 0.014.

As to MKFNVISFLFHK [NAM2 C-terminal 12 aa], the protein stability index by setting is: under setting [1], 0.688 ± 0.011; (genetic background: wild type) 0.615 ± 0.011.

MKQLEKAGVRFE [FMP33 C-terminal 12 aa]: the protein stability index under setting [1] was 0.6871 ± 0.0014 and the protein stability index (genetic background: wild type) came to 0.686 ± 0.014.

On to MLGVGSLLFLAF [ROT1 C-terminal 12 aa], for which the protein stability index under setting [1] was 0.698 ± 0.03 and the protein stability index (genetic background: wild type) was 0.691 ± 0.026.

On to MLYTSYQSIFGV [AVT4 C-terminal 12 aa], for which the protein stability index reads like this: under setting [1], 0.707 ± 0.015; (genetic background: wild type) 0.706 ± 0.0086.

Regarding MNSAMNVQPTGF [CHC1 C-terminal 12 aa], the protein stability index reads like this: under setting [1], 0.6951 ± 0.0016; (genetic background: wild type) 0.662 ± 0.033.

For “MTQWLEISILMN [YCL001W-A C-terminal 12 aa]”, the protein stability index reads like this: under setting [1], 0.544 ± 0.05; (genetic background: wild type) 0.319 ± 0.034.

In the case of MVGVLFFWVWIT [BET1 C-terminal 12 aa], the protein stability index is 0.201 ± 0.0064 under setting [1] and 0.123 ± 0.018 (genetic background: wild type).

Consider NAPRFGVEYQMT [PHO89 C-terminal 12 aa], for which the protein stability index by setting is: under setting [1], 0.72259 ± 0.00055; (genetic background: wild type) 0.67 ± 0.017.

As to NCANCVYFSSRG [YDL221W C-terminal 12 aa], the protein stability index is, setting by setting: under setting [1], 0.7169 ± 0.0029; (genetic background: wild type) 0.716 ± 0.043.

As for NDAQKRAIDENF [SIS1 C-terminal 12 aa], the protein stability index by setting is: under setting [1], 0.687 ± 0.016; (genetic background: wild type) 0.683 ± 0.0076.

Take “NDQNKNKQNAKR [YIL156W-A C-terminal 12 aa]”: the protein stability index is 0.7078 ± 0.0055 under setting [1] and 0.639 ± 0.011 (genetic background: wild type).

For NDTIFKLKVFKL [ILS1 C-terminal 12 aa], the protein stability index reads like this: under setting [1], 0.7346 ± 0.001; (genetic background: wild type) 0.759 ± 0.099.

On to NEDDYLAVKYVL [FES1 C-terminal 12 aa], for which the protein stability index worked out at 0.687 ± 0.018 under setting [1] and 0.696 ± 0.044 (genetic background: wild type).

Take NEGSEEEPEIDQ [BDP1 C-terminal 12 aa]: the protein stability index under setting [1] stood at 0.6878 ± 0.0019 and the protein stability index (genetic background: wild type) stood at 0.702 ± 0.037.

NEKGNDDSDAKK [ILM1 C-terminal 12 aa]: the protein stability index by setting is: under setting [1], 0.695 ± 0.041; (genetic background: wild type) 0.685 ± 0.029.

As to NEKRNEPKPSTN [YTA12 C-terminal 12 aa], the protein stability index is, setting by setting: under setting [1], 0.6938 ± 0.0025; (genetic background: wild type) 0.656 ± 0.017.

As for NEMRERLRALQN [VPS24 C-terminal 12 aa], the protein stability index runs as follows: under setting [1], 0.668 ± 0.011; (genetic background: wild type) 0.685 ± 0.054.

For the sequence NENKKANGNNCC [YPT31 C-terminal 12 aa], the protein stability index runs as follows: under setting [1], 0.705 ± 0.017; (genetic background: wild type) 0.652 ± 0.036.

For NHFHYDCVYRYC [YOR333C C-terminal 12 aa], the protein stability index under setting [1] worked out at 0.6939 ± 0.0038 and the protein stability index (genetic background: wild type) was 0.404 ± 0.03.

NIKSSTLPGLSI [PFS2 C-terminal 12 aa]: the protein stability index under setting [1] turned out to be 0.694 ± 0.02 and the protein stability index (genetic background: wild type) came out at 0.664 ± 0.029.

On to NKYMNEMLEYMQ [NUF2 C-terminal 12 aa], for which the protein stability index reads like this: under setting [1], 0.715 ± 0.0072; (genetic background: wild type) 0.719 ± 0.085.

As for NLAGRKNSRDNE [LOT5 C-terminal 12 aa], the protein stability index is, setting by setting: under setting [1], 0.681 ± 0.017; (genetic background: wild type) 0.6772 ± 0.0027.

Take NLDNLFMASSLI [AIM6 C-terminal 12 aa]: the protein stability index reads like this: under setting [1], 0.7128 ± 0.0018; (genetic background: wild type) 0.658 ± 0.033.

NMGGWVLGGNAR [SND1 C-terminal 12 aa]: the protein stability index runs as follows: under setting [1], 0.721 ± 0.023; (genetic background: wild type) 0.6926 ± 0.0057.

As to NNGSSNNNTQNT [SNF5 C-terminal 12 aa], the protein stability index by setting is: under setting [1], 0.67 ± 0.014; (genetic background: wild type) 0.673 ± 0.022.

Regarding NNLHSYEKRLHN [YAR075W C-terminal 12 aa], the protein stability index stood at 0.69 ± 0.019 under setting [1] and 0.7 ± 0.015 (genetic background: wild type).

On to NNQPHYRDQLLQ [REI1 C-terminal 12 aa], for which the protein stability index runs as follows: under setting [1], 0.6976 ± 0.0028; (genetic background: wild type) 0.706 ± 0.048.

With NNVDVSWVDKLV [STB5 C-terminal 12 aa], the protein stability index is, setting by setting: under setting [1], 0.712 ± 0.013; (genetic background: wild type) 0.714 ± 0.046.
